Target: T1, MutS (Escherichia coli, UniProt P23909 1-853)
T1 sequence: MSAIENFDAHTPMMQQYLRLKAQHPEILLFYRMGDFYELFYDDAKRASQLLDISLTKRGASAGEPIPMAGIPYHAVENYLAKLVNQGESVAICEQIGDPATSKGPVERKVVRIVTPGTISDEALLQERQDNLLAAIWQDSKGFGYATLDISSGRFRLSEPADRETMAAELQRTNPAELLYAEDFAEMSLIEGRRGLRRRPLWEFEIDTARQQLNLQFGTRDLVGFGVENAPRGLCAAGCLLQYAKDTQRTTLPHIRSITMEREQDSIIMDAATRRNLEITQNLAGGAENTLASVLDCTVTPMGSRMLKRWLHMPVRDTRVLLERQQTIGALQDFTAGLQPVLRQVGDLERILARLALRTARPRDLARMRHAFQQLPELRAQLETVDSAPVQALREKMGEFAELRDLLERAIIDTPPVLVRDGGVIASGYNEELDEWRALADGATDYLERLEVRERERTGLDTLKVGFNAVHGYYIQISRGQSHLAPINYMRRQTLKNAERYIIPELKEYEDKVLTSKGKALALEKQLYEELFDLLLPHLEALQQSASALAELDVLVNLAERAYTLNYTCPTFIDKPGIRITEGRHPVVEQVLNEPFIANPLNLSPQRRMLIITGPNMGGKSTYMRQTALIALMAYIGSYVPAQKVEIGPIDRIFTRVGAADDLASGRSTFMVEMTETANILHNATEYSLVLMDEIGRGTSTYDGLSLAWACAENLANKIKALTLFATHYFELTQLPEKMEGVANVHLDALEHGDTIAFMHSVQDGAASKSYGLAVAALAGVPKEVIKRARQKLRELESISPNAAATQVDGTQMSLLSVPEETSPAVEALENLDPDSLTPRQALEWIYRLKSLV
Test: EMSA; 5 mM Mg2+; 20 pmol unlabeled GC duplex; 20 mM Tris-HCl pH 7.6, 50 mM KCl, 5 mM MgCl2, 1 mM DTT, 0.05 mg/ml BSA, 37 °C 15 min, 20 μl, 2 pmol labeled duplex, 20 pmol unlabeled GC duplex, 5% native PAGE
Conditions: protein: recombinant, tags: His6, chain copies: 2, label: 5'-32P (KN-2 or KN-3 strand)

B1: G:T duplex (dsDNA)
DNA 1: GGTCGCTGGGGAATGGGAGTGGCCACGGCG
DNA 2: CGCCGTGGCCACTCTCATTCCCCAGCGACC
Kd (G:T mismatch): 75 nM

B2: O6-EtG:C duplex (dsDNA)
DNA 1: GGTCGCTGGGGAATGGGAGTGGCCACGGCG
DNA 2: CGCCGTGGCCACTCCCATTCCCCAGCGACC
modifications: O6-ethylguanine opposite C
Kd (O6-EtG:C pair): 220 nM

B3: O6-MeG:T duplex (dsDNA)
DNA 1: GGTCGCTGGGGAATGGGAGTGGCCACGGCG
DNA 2: CGCCGTGGCCACTCTCATTCCCCAGCGACC
modifications: O6-methylguanine opposite T
Kd (O6-MeG:T pair): 120 nM

B4: O6-MeG:C duplex (dsDNA)
DNA 1: GGTCGCTGGGGAATGGGAGTGGCCACGGCG
DNA 2: CGCCGTGGCCACTCCCATTCCCCAGCGACC
modifications: O6-methylguanine opposite C
Kd (O6-MeG:C pair): 220 nM

B5: O6-EtG:T duplex (dsDNA)
DNA 1: GGTCGCTGGGGAATGGGAGTGGCCACGGCG
DNA 2: CGCCGTGGCCACTCTCATTCCCCAGCGACC
modifications: O6-ethylguanine opposite T
Kd (O6-EtG:T pair): 210 nM
